Assay results: paper PMC12289019

What was measured:
[1] = biological target: adeno-associated virus 2 (AAV2) capsid (adeno-associated virus 2)
[2] = biological target: adeno-associated virus 6 (AAV6) capsid (adeno-associated virus 6)
[3] = biological target: adeno-associated virus 2 (AAV2) capsid (adeno-associated virus 2); experiment: SPR; AAV2 amine-coupled to a CM5 chip (9451 RU); HD5 or HNP1 as analyte; BIAcore X100, 25°C, PBS running buffer; 1:1 binding model for KD; stoichiometry by GraphPad Prism; 2 replicates; paper speaks of avidity
[4] = biological target: adeno-associated virus 2 (AAV2) capsid (adeno-associated virus 2); remark: listed apart in the source

Row | Substance | IC50 of inhibition of AAV2 binding to HeLa cells in the cold (qPCR of bound genomes) [1] | IC50 of inhibition of AAV2 infection of HeLa cells (GFP), defensin added post-attachment [1] | IC50 of inhibition of AAV6 binding to HeLa cells in the cold (qPCR of bound genomes); inhibition incomplete [2] | Kd [3] | stoichiometry N (molecules per capsid) [3] | IC50 of inhibition of AAV2 infection of HeLa cells (GFP), defensin incubated with virus pre-attachment [4]
1 | human defensin 5 (HD5) (peptide) | 9.2 µM | 4.4 µM | 41.6 µM | 0.57 µM | 385 | 
2 | human neutrophil peptide 1 (HNP1) |  | 6 µM |  | 0.32 µM | 227 | 9.7 µM
